According to US20060078559A1 (EUROSCREEN S A, published 2006):
Values belong to the molecule of their own block, whether it stands above or below them. Where no end group is shown, it is not given here. [ ]: non-standard residue; d: D form. The star is where a group is joined. For = O=C*

Experiments:
[1] = molecular target: T1, human formyl peptide receptor-like 2 (FPRL2) (human) (UniProt P25089); assay: cell-based or functional assay
T1 sequence: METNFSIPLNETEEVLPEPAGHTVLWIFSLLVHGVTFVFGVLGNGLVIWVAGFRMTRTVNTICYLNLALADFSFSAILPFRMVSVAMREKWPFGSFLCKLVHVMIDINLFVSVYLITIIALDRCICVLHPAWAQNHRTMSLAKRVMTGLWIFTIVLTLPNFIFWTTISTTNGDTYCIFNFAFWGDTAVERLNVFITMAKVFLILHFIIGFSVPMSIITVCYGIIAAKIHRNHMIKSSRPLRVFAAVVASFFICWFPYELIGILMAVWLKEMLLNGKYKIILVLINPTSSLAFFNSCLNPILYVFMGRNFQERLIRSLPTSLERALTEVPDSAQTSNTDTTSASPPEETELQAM

[2] = molecular target: T2, human formyl peptide receptor-like 2 (FPRL2) (human, UniProt P25089 1-353); assay: binding assay on FPRL2-expressing CHO-K1 cells
T2 construct: Expressed on CHO-K1 cells with or without G alpha 16 and apoaequorin; Also detected on monocyte-derived dendritic cells; also called FPR-like 2; FPRL2 receptor
T2 sequence: T1 sequence

[3] = molecular target: T3, human FPR (formyl peptide receptor) (human, UniProt P21462 1-350); assay: cell-based or functional assay
T3 chain: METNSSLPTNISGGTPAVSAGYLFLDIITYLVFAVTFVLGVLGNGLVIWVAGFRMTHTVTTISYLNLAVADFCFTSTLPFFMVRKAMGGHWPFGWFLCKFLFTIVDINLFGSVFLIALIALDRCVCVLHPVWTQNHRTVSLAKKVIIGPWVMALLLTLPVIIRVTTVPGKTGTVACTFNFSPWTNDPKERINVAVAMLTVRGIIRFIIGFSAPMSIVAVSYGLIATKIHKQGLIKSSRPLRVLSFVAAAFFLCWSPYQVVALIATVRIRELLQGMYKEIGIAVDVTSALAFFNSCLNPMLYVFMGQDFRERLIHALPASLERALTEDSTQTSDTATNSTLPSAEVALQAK

[4] = molecular target: T4, human FPRL1 (FPR-like 1) (human, UniProt P25090 1-351); assay: cell-based or functional assay
T4 sequence: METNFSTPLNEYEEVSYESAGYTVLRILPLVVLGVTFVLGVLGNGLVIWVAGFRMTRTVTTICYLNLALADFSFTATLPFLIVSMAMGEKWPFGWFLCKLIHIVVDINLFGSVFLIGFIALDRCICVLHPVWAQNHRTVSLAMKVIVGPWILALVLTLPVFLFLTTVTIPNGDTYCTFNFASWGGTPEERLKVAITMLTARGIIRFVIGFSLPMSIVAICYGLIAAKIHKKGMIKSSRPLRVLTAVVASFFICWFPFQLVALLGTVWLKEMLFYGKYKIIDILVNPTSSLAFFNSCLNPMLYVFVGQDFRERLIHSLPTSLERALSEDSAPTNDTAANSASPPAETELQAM

[5] = molecular target: T3, human FPR (formyl peptide receptor); assay: cell-based or functional assay
[6] = molecular target: T1, human formyl peptide receptor-like 2 (FPRL2) (human); assay: competition binding on FPRL2-expressing CHO-K1 cells, tracer F2L-[125I]Tyr
[7] = molecular target: T3, human FPR (formyl peptide receptor); assay: cell-based or functional assay
[8] = molecular target: T4, human FPRL1 (FPR-like 1); assay: competition radioligand binding on FPRL1-expressing CHO-K1 cells, tracer [125I]-WKYMVm
Procedure: (§1) FPRL2, FPRL1 and FPR-expressing CHO-K1 cells were plated in 24 wells plates (200,000 cells per well for FPRL2, and 100,000 cells per well for the two other receptors). The next day, the cells were washed twice with a KRH buffer containing 280 mM saccharose and, for FPRL1 and FPR, 0.1% NaN₃. […] Cells were washed twice with ice cold buffer, total radioactivity was recovered with 1 M NaOH and counted in a gamma counter for 2 min.

[9] = molecular target: T3, human FPR (formyl peptide receptor); assay: competition radioligand binding on FPR-expressing CHO-K1 cells, tracer [125I]-WKYMVm
Procedure: as §1

[10] = molecular target: T2, human formyl peptide receptor-like 2 …; assay: cell-based or functional assay
[11] = molecular target: T4, human FPRL1 (FPR-like 1); assay: cell-based or functional assay; remark: listed apart in the source
[12] = molecular target: T2, human formyl peptide receptor-like 2 …; assay: competition binding on FPRL2-expressing CHO-K1 cells, tracer F2L-[125I]Tyr
Procedure: as §1
The EC50 and IC50 parameters of the dose-response curves were determined by non-linear regression using the Graphpad Prism software. The results represent the mean pEC50 or pIC50 (−Log values of EC50 or IC50 expressed in Mol/L) ± s.e.m. for at least three independent experiments (n).

[13] = molecular target: T4, human FPRL1 (FPR-like 1); assay: cell-based or functional assay; remark: listed apart in the source

EC50, aequorin-based functional assay (native fraction A1) [1]: 200 nM
Molecule: A1, about 6 kD peptide of porcine heme-binding protein purified from porcine spleen (from UniProt P80015)

binding result [2]: no binding
B1: F2L[7-21] (peptide)
peptide: NSLFGSVETWPWQVL
notes: Synthetic; also called [7-21]F2L; truncated F2L variant lacking the first six aminoacids

EC50 (read off the curve), inhibition of cAMP accumulation [FPR] [3]: ~0.1 nM
pEC50 (aequorin assay) [4]: 5.94 -Log of EC50 in Mol/L
pEC50 (cAMP assay) [4]: < 6 -Log of EC50 in Mol/L
pEC50 (aequorin assay) [5]: 9.39 -Log of EC50 in Mol/L
pEC50 (cAMP assay) [5]: 10.2 -Log of EC50 in Mol/L
pIC50 (binding assay) (-Log of IC50 in Mol/L) [6]: < 6
EC50 (read off the curve), aequorin luminescence [FPR] [7]: ~0.7 nM
pEC50 (aequorin assay) (-Log of EC50 in Mol/L) [1]: < 6
pEC50 (cAMP assay) (-Log of EC50 in Mol/L) [1]: < 6
Molecule: For-Met-Leu-Phe [FMLP (formyl-methionine-leucyl-phenylalanine)]

IC50 (read off the curve) [8]: ~20 nM
IC50 (read off the curve) [9]: ~70 nM
pEC50 (aequorin assay) [10]: < 6 -Log of EC50 in Mol/L
EC50 (read off the curve), aequorin luminescence [FPRL1] [11]: ~0.04 nM
EC50 (read off the curve), aequorin luminescence [FPR] [7]: ~0.7 nM
pIC50 (binding assay) [12]: < 6 -Log of IC50 in Mol/L
pEC50 (aequorin assay) (-Log of EC50 in Mol/L) [1]: < 6
pEC50 (cAMP assay) (-Log of EC50 in Mol/L) [1]: < 6
B2: WKYMVm (peptide)
peptide: WKYMV[dM]
notes: Bought from Phoenix Pharmaceuticals; also called W-hexapeptide; synthetic W peptide

EC50 (read off the curve), inhibition of cAMP accumulation [FPRL1] [13]: ~0.7 nM
pEC50 (aequorin assay) [4]: 9.27 -Log of EC50 in Mol/L
pEC50 (cAMP assay) [4]: 9.23 -Log of EC50 in Mol/L
pEC50 (aequorin assay) [10]: < 6 -Log of EC50 in Mol/L
pEC50 (cAMP assay) [10]: < 6 -Log of EC50 in Mol/L
pEC50 (aequorin assay) [5]: < 6 -Log of EC50 in Mol/L
pEC50 (cAMP assay) [5]: < 6 -Log of EC50 in Mol/L
EC50 (read off the curve), aequorin luminescence [FPRL1] [11]: ~0.5 nM
pIC50 (binding assay) [12]: < 6 -Log of IC50 in Mol/L
Molecule: MLWRRKIGPQMTLSHAAG (also called CCL23-derived SHAAG peptide) [SHAAG peptide derived from CCL23 N-terminus]
